“And” between values parts separate entries of the source, which are not always exact repeats. Equal values may be shown once. Read-outs that look alike come from different tables or passages of the source.

Assay [1] has as its target T1, peptide-conjugate (Example 1; lactosyl-Ser-…-Cys coupled to KLH) (influenza virus).
Assay [2] addresses peptide of Example 1 (influenza virus). Briefly: SPR, mAb captured on anti-mouse Fc, peptide injected. For orientation: In SPR one partner is held on a chip, and binding of the other changes the refractive index at the surface.
Assay [3] has the same target. Briefly: SPR, mAb captured on anti-mouse Fc, peptide injected; average.
Assay [4] has as its target hemagglutinin of H5N1 A/Indonesia/05/2005 (influenza virus H5N1 A/Indonesia/05/2005).
Assay [5] has the same target. Briefly: dot blot, 4M urea; rHA (Prot. Sc.), dot 7.
In assay [6] the target is hemagglutinin of H5N1 A/Vietnam/1203/2004 (influenza virus H5N1 A/Vietnam/1203/2004). The assay can be described thus: dot blot, 4M urea; rHA (Prot. Sc.), dot 8.
Assay [7] deals with hemagglutinin of H7N7 A/Netherlands/219/2003 (influenza virus H7N7 A/Netherlands/219/2003). The assay can be described thus: dot blot, 4M urea; rHA (Prot. Sc.), dot 9.
Assay [8] deals with hemagglutinin of H9N2 A/Hong Kong/1073/1999 (influenza virus H9N2 A/Hong Kong/1073/1999). The assay can be described thus: dot blot, 4M urea; rHA (Prot. Sc.), dot 10.
The target in a further assay is Non-related protein. Briefly: dot blot, 4M urea; negative control, dot 16.
In assay [9] the target is T1, peptide-conjugate (Example 1; …). The source holds these as a separate data set.

B1: F211-9D1 (antibody, V domains shown)
VL: DIVMSQSPSSLAVSVGEKVTMSCKSSQSLLNSRNQKNHLAWYQQKPGQSPKLLIYWASTRESGVPDRFSGDGSGTDFTLTISSVKAEDLAVYYCQQYYTYRTFGGGTKLEIK
VH: DVQLQESGPGLVKPSQSLSLTCSVTGYSITSDYYWNWIRQFPGNKLEWMAYIGYDGSKNYNPSLKNRISITRDTSKNQFFLKLNSVTTDDTATYYCTRDRANWDDYFDYWGQGTTLTVSS
B1 displayed an EC50 (read off the curve) in assay [1] of 0.03 µg/mL.

B2: F211-11H12 (antibody, V domains shown)
VL: DIVMSQSPSSLAVSVGEKVTMSCKSSQSLLNSRNQKNHLAWYQQKPGQSPKLLIYWASTRESGVPDRFTGDGSGTDFTLTISSVKAEDLAVYYCQQYYTYRTFGGGTKLEIK
VH: DVQLQESGPGLVKPSQSLSLTCSVTGYSITSDYYWNWIRQFPGNKLEWMAYIGYDGTKNYNPSLKNRISITRDTSKNQFFLKLNSVTTDDTATYYCTRDRANWDDYFDYWGQGTTLTVSS
With B2, the dissociation constant (Kd) in assay [2] and in [3] was 0.465 nM throughout.

B3: F211-11H12 (antibody, V domains shown)
VH: DVQLQESGPGLVKPSQSLSLTCSVTGYSITSDYYWNWIRQFPGNKLEWMAYIGYDGTKNYNPSLKNRISITRDTSKNQFFLKLNSVTTDDTATYYCTRDRANWDDYFDYWGQGTTLTVSS
VL: DIVMSQSPSSLAVSVGEKVTMSCKSSQSLLNSRNQKNHLAWYQQKPGQSPKLLIYWASTRESGVPDRFTGDGSGTDFTLTISSVKAEDLAVYYCQQYYTYRTFGGGTKLEIK
Turning to B3, the signal intensity (arbitrary fluorescent units) in [4] came out at 43100; in assay [5] it was 22200; in [6], 45900; in assay [7], 488; in [8], 3570; with Non-related protein, 38.

B4: F211-9D1 (antibody, V domains shown)
VH: DVQLQESGPGLVKPSQSLSLTCSVTGYSITSDYYWNWIRQFPGNKLEWMAYIGYDGSKNYNPSLKNRISITRDTSKNQFFLKLNSVTTDDTATYYCTRDRANWDDYFDYWGQGTTLTVSS
VL: DIVMSQSPSSLAVSVGEKVTMSCKSSQSLLNSRNQKNHLAWYQQKPGQSPKLLIYWASTRESGVPDRFSGDGSGTDFTLTISSVKAEDLAVYYCQQYYTYRTFGGGTKLEIK
On to B4, for which the signal intensity (arbitrary fluorescent units) was found to be 46700 in assay [4]; 10100 in assay [5]; 46800 in [6]; 425 in assay [7]; 3760 in assay [8]; 47 in the assay with Non-related protein.

B5: CHO-11H12 (antibody, V domains shown)
VL: DIVMSQSPSSLAVSVGEKVTMSCKSSQSLLNSRNQKNHLAWYQQKPGQSPKLLIYWASTRESGVPDRFTGDGSGTDFTLTISSVKAEDLAVYYCQQYYTYRTFGGGTKLEIK
VH: DVQLQESGPGLVKPSQSLSLTCSVTGYSITSDYYWNWIRQFPGNKLEWMAYIGYDGTKNYNPSLKNRISITRDTSKNQFFLKLNSVTTDDTATYYCTRDRANWDDYFDYWGQGTTLTVSS
In assay [3], B5 returned a Kd of 0.639 nM.

B6: F211-10A9 (antibody, V domains shown)
VL: DIVMTQSPSSLAMSVGQKVTMSCKSSQSLLNSDTQKNFLAWYQQKPGQSPKILVYFASTKESGVPDRFIGSGSGTDFTLTITSVQAEDLADYFCQQYYSIPLTFGAGTKLELK
VH: QIQLQQSGPELVKPGAPVKISCKASGYTFTDYYIHWVNQRPGQGLEWIGYIYPGNGHTVYNQKFKVRATLTADNPSSTAYLQLNSLTSEDSGVYFCAYDLFNYWGQGTLVTVSA
Take B6: the EC50 (read off the curve) in assay [9] was 0.05 µg/mL and 0.03 µg/mL. Further, the Kd in assay [2] and in assay [3] was 0.338 nM throughout.

B7: CHO-10A9 (antibody, V domains shown)
VL: DIVMTQSPSSLAMSVGQKVTMSCKSSQSLLNSDTQKNFLAWYQQKPGQSPKILVYFASTKESGVPDRFIGSGSGTDFTLTITSVQAEDLADYFCQQYYSIPLTFGAGTKLELK
VH: QIQLQQSGPELVKPGAPVKISCKASGYTFTDYYIHWVNQRPGQGLEWIGYIYPGNGHTVYNQKFKVRATLTADNPSSTAYLQLNSLTSEDSGVYFCAYDLFNYWGQGTLVTVSA
As for B7, in [3], the dissociation constant Kd was 0.365 nM.

B8: F211-10A9 (antibody, V domains shown)
VH: QIQLQQSGPELVKPGAPVKISCKASGYTFTDYYIHWVNQRPGQGLEWIGYIYPGNGHTVYNQKFKVRATLTADNPSSTAYLQLNSLTSEDSGVYFCAYDLFNYWGQGTLVTVSA
VL: DIVMTQSPSSLAMSVGQKVTMSCKSSQSLLNSDTQKNFLAWYQQKPGQSPKILVYFASTKESGVPDRFIGSGSGTDFTLTITSVQAEDLADYFCQQYYSIPLTFGAGTKLELK
On to B8, for which the signal intensity (arbitrary fluorescent units) in [4] was 28600; in assay [5] it was 165; in assay [6], 8260; in assay [7] it was 42000; in assay [8] it was 2970; in the assay with Non-related protein, 34.

A word on the EC50 (read off the curve): it is the concentration that produces a half-maximal response. Broadly, the Kd is a measure of binding affinity in units of concentration. Lower therefore signals tighter binding.
